In this assay the target is RON (Macrophage stimulating protein receptor), full length, on cells (human, UniProt Q04912 25-1400). Description: cell-based or functional assay.

B1: Narnatumab (antibody, V domains shown)
VH: EVQLVESGGGLVQPGGSLRLSCAASGFTFSSYLMTWVRQAPGKGLEWVANIKQDGSEKYYVDSVKGRFTISRDNAKNSLNLQMNSLRAEDTAVYYCTRDGYSSGRHYGMDVWGQGTTVIVSS
VL: EIVLTQSPATLSLSPGERATLSCRASQSVSRYLAWYQQKPGQAPRLLIYDASNRATGIPARFSGSGSGTDFTLTISSLEPEDFAVYYCQQRSNWPRTFGQGTKVEIK
As for B1, the “IC50 of inhibition of MSP induced ERK phosphorylation (AlphaLISA SureFire p-ERK, T47D cells)” value amounted to 14.9 nM.

B2: chimeric 10G1 (mouse Fab with human Fc backbone) (antibody, V domains shown)
VH: EVKLEQSGGGLVQPGGSRKLSCAASGFTFSSFGMHWVRQAPEKGLEWVAYISGGSGTFYYADTVKGRFTISRDNPKNTLFLQMTSLRSEDTAIYYCARSTTVLDYWGQGTTLTVSS
VL: DIVLTQTPSSMYAFLGERVTIICKASQDINNYLNWVQQKPGKAPKTLIYHADRLADGVPSRFSGSGSGQDYSLTISSLEYEDMGIYYCLQYDDFPPFTFGSGTKLEIK
Turning to B2, the “EC50 of antibody dependent cellular cytotoxicity (xCELLigence, T47D targets, human NK cells, E:T 10:1)” value was found to be 0.003 nM.

(Values after patent publication US20220372125A1 (ASLAN PHARMACEUTICALS PTE, published 2022).)
